Test results taken from publication PMC8316464.

Columns and labels:
Assay in all cases: SPR; Biacore S200; Bcl-2 family proteins immobilised on CM5 (amine coupling or His-Capture Kit); peptides and flag-tagged proteins as analytes, single-cycle kinetics, HBS-EP, 25 °C; 1:1 Langmuir model; absence of binding probed at 100 nM and 3 µM
Bcl-xL (human) = Bcl-xL (human) (UniProt Q07817)
Bcl-2 (human) = Bcl-2 (human) (UniProt P10415)
[1] = molecular target: His-tagged human Mcl-1 (human) (UniProt Q07820)
Chain of His-tagged human Mcl-1 (human) (Q07820 whole entry): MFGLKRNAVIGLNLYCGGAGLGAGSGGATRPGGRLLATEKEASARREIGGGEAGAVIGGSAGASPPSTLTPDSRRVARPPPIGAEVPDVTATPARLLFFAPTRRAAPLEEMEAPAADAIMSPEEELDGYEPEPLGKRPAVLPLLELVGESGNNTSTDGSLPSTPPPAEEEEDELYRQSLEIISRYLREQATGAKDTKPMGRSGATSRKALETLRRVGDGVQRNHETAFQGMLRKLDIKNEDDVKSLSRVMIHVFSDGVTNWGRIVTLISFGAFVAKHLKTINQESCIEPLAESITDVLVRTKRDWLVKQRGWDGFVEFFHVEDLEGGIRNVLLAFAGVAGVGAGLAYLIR

Chain of Bim BH3 peptide (25-mer, residues 141-165) (peptide): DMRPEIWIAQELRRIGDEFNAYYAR
Chain of Bcl-xL (human) (Q07817 whole entry): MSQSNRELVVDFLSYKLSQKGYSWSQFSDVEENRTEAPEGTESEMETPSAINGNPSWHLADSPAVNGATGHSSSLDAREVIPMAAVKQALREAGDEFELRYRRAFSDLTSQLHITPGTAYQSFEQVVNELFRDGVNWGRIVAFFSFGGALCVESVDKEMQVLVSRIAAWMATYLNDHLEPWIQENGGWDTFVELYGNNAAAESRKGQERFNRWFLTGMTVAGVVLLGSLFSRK

Substance	Kd (Bcl-xL (human))	Kd (Bcl-2 (human))	Kd [1]
Bim BH3 peptide (25-mer, residues 141-165)	3.3 nM	14.2 nM	0.37 nM
Bim (A149I) peptide	12.2 nM	115 nM	0.82 nM
